Columns and labels:
[1] = molecular target: T1, hIL-4R on cells (STAT6-transfected HEK293, TF1, TF1/A12) (human, UniProt P24394 26-825); assay: cell-based or functional assay
T1 sequence (looked up): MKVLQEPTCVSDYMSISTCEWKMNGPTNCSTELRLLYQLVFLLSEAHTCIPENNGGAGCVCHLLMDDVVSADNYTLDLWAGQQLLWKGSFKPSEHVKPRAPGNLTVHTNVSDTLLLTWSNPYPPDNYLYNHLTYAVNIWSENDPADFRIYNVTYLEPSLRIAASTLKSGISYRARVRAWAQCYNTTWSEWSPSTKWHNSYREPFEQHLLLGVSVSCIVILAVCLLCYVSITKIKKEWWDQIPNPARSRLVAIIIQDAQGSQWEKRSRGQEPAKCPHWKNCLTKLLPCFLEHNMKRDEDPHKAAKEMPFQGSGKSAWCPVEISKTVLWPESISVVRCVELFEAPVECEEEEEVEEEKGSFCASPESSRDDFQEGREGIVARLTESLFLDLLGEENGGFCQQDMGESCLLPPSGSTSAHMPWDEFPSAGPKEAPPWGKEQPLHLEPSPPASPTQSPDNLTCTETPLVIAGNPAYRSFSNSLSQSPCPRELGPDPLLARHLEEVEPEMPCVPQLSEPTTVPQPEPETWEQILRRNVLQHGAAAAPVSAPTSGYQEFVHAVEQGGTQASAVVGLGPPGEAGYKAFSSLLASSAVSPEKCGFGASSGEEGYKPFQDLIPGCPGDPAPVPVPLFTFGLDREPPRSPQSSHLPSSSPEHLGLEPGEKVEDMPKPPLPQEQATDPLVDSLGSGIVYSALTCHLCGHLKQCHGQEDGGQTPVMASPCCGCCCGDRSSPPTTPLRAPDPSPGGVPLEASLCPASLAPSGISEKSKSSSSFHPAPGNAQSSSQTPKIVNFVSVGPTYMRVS

[2] = molecular target: T1, hIL-4R on cells (STAT6-transfected …); assay: cell-based or functional assay; remark: listed apart in the source
dimeric hIL-4R-hFc [3] = molecular target: T2, dimeric hIL-4R-hFc (human, UniProt P24394 26-232); assay: ELISA; antibody titrated against 25 pM hIL-4R-Fc, free receptor caught on hIL-4 plate
T2 construct: also called hIL-4R-Fc; not shown: human Fc (hFc)
T2 sequence: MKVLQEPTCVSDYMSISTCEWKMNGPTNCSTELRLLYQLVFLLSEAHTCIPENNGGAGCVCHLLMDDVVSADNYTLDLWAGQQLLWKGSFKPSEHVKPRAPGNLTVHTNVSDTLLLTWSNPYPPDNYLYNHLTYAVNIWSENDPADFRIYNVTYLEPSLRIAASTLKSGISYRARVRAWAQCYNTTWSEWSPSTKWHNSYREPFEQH
Protocol: Concentration of free hIL-4R-Fc (no antibody bound) was determined using a hIL-4R-specific sandwich ELISA. […] After a one-hour incubation at room temperature, the detection plate was washed and plate-bound hIL-4R-hFc was detected using HRP conjugated goat anti-hFc polyclonal antibodies and developed using colorimetric substrates such as BD OptEIA™ (BD Biosciences Pharmingen, San Diego, Calif.). After the reaction was stopped with 1 M phosphoric or sulfuric acid, absorbances at 450 nm were recorded and the data were analyzed using GraphPad™ Prism software.

dimeric hIL-4R-hFc [4] = molecular target: T2, dimeric hIL-4R-hFc; assay: SPR (BIAcore 2000); antibody captured, dimeric hIL-4R-hFc injected
Protocol: (§1) Binding affinity (KD) of selected antibodies with respect to hIL-4R was determined using a real-time biosensor surface plasmon resonance assay (BIAcore™ 2000). Briefly, antibody was captured on a goat anti-mouse (GAM) IgG polyclonal antibody surface created through direct chemical coupling of the GAM IgG to a BIAcore™ chip to form a captured antibody surface. […] Binding of antigen to antibody and dissociation of the bound complex, were monitored in real time. Equilibrium dissociation constants (KD) and dissociation rate constants were ascertained by performing kinetic analysis using BIA evaluation software. BIA evaluation software was also used to calculate the half-life of antigen/antibody complex dissociation (T_{1/2}). […] The binding affinity of anti-hIL-4R antibodies to either mouse or monkey (Macaca fascicularis) IL-4R was also tested.

mouse IL-4R = molecular target: T3, mouse IL-4R (mouse, UniProt P16382 26-233, limits assumed); assay: binding affinity test of Example 2 (method not restated)
T3 sequence (looked up): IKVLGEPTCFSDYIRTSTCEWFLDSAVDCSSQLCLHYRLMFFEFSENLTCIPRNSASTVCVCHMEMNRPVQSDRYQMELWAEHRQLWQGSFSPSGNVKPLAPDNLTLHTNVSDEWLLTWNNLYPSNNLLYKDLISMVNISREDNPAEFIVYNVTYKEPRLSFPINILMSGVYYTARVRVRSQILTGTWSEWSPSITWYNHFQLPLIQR

dimeric hIL-4R-hFc [5] = molecular target: T2, dimeric hIL-4R-hFc; assay: SPR; reduction of hIL-4 (50 nM) binding to captured hIL-4R-hFc after antibody; competitor hIL-4
Excerpt: Purified hIL-4R-hFc molecules were captured by goat anti-human IgG polyclonal antibody immobilized on CM-5 to a density of 260 RU, to prepare a receptor-coated surface.

[6] = molecular target: T4, monomeric hIL-4R (R&D Systems) (human, UniProt P24394 26-231); assay: SPR (BIAcore 2000); antibody captured, monomeric hIL-4R injected
T4 construct: Bought (R&D Systems); also called hIL-4R monomer
T4 sequence: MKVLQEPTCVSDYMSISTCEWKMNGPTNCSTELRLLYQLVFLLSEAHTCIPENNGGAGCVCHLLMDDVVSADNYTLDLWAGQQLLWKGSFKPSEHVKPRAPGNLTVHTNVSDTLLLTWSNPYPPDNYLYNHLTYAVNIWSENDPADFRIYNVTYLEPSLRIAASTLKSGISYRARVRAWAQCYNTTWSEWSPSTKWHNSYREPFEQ
Protocol: as §1

B1: VAB 15C8-17 (antibody, V domains shown)
VH: QVQLVESGGGLVQPGGSLRLSCAVSGFTISDHYMSWIRQAPGKGLEWISYISSSGSKIYYADSVKGRFTISRDNAKNSLFLQMNSLRAEDTAVYYCARTRQLVGDYWGQGTLVTVSS
VL: DIQLTQSPSFLSASVGDRVTITCWASQGISSYLAWYQQKPGKAPKLLIFAASTLQSGVPSRFSGSGSGTEFTLTISSLQPEDFATYYCQQLNSYPLTFGGGTKVEIR
notes: Apparently tested with mouse constant region (anti-mouse IgG capture/detection)
Q: With B1 as the binder, how does the “STAT6 Bioassay IC50 (HEK293 STAT6 luciferase, 40 pM hIL-13)” value [1] read?
A: The value was 0.2 nM.

Q: And the “TF1 Bioassay IC50 (proliferation, 150 pM hIL-13)” value [1]?
A: Its value is 2.6 nM.

Q: And the “STAT6 Bioassay IC50 (HEK293 STAT6 luciferase, 10 pM hIL-4)” value [2]?
A: Its value is 0.32 nM.

Q: And the “TF1/A12 Bioassay IC50 (proliferation, 20 pM hIL-4)” value (from here on “TF1/A12 Bioassay IC50”) [2]?
A: The value was 4.7 nM.

Q: What about the “TF1 Bioassay IC50 (proliferation, 50 pM hIL-4)” value [2] of the same binder?
A: The value was 0.44 nM.

Q: And the IC50 (dimeric hIL-4R-hFc [3])?
A: The IC50 was 29 pM.

Q: What about the Kd (dimeric hIL-4R-hFc [4]) of the same binder?
A: Its Kd is 45 pM.

Q: What about the T1/2 dimeric (dimeric hIL-4R-hFc [4]) of the same binder?
A: The T1/2 dimeric was 3.6 h.

Q: Does B1 bind (mouse IL-4R)?
A: Result: no binding

Q: What about the “% Inhibition (BIAcore)” value (dimeric hIL-4R-hFc [5]) of the same binder?
A: The value was 97%.

Q: And the Kd [6]?
A: Its Kd is 820 pM.

Q: What about the T1/2 monomeric [6] of the same binder?
A: Its T1/2 monomeric is 0.25 h.

B2: VAB 10G8-19 (antibody, V domains shown)
VH: QVQLVQSGAEVKKPGASVKVSCKASRYTFTSYDINWVRQATGQGLEWMGWMNPNSGNTGYAQKFQGRVTMTRNTSTSTAYMELSSLRSEDTAVYYCARVRRFFDYWGQGTLVTVSS
VL: DIQLTQSPSFLSASVGDRVTITCWASQGIISYLAWYQQKPGKAPKLLIYAASTLHSGVPSRFSGSGSGTEFTLTISSLQPEDFATYYCHQLKSYPITFGQGTRLEIK
notes: as for B1
Q: How did the “STAT6 Bioassay IC50 (HEK293 STAT6 luciferase, 40 pM hIL-13)” value [1] turn out when B2 was run?
A: The value was 0.97 nM.

Q: What about the “STAT6 Bioassay IC50 (HEK293 STAT6 luciferase, 10 pM hIL-4)” value [2] of the same binder?
A: Its value is 1.8 nM.

Q: And the “TF1/A12 Bioassay IC50” value [2]?
A: Its value is 12.8 nM.

Q: What about the IC50 (dimeric hIL-4R-hFc [3]) of the same binder?
A: Its IC50 is 18 pM.

Q: What about the Kd (dimeric hIL-4R-hFc [4]) of the same binder?
A: The Kd was 52 pM.

Q: What about the T1/2 dimeric (dimeric hIL-4R-hFc [4]) of the same binder?
A: The T1/2 dimeric was 2 h.

Q: Does B2 bind (mouse IL-4R)?
A: Result: no binding

Q: What about the “% Inhibition (BIAcore)” value (dimeric hIL-4R-hFc [5]) of the same binder?
A: The value was 85%.

Q: What about the Kd [6] of the same binder?
A: Its Kd is 11400 pM.

Q: And the T1/2 monomeric [6]?
A: The T1/2 monomeric was 0.0333 h.

B3: VAB 16F3-1 (antibody, V domains shown)
VH: QVQLVQSGAEVKKPGASVKVSCKASGYTFNSYGISWVRQAPGQGLEWMGWIRTYNGNTNYAQKLQGRVTMTTDTSTSTAYMELRSLRSDDTAVYYCARDEARIVVAGTTPYYYGMDVWGQGTTVTVSS
VL: DIQMTQSPSSVSASVGDRVTITCRASQDISIWLAWYQQSPGKAPKLLINVASRLQSGVPSRFSGSGSGTDFTLTINSLQPEDFVTYYCQQANSFPITFGQGTRLATK
notes: as for B1
Q: What does the source list for B3?
A: STAT6 Bioassay IC50 (HEK293 STAT6 luciferase, 40 pM hIL-13) [1]: 18 pM; TF1 Bioassay IC50 (proliferation, 150 pM hIL-13) [1]: 79 pM; STAT6 Bioassay IC50 (HEK293 STAT6 luciferase, 10 pM hIL-4) [2]: 32 pM; TF1/A12 Bioassay IC50 (proliferation, 20 pM hIL-4) [2]: 67 pM; TF1 Bioassay IC50 (proliferation, 50 pM hIL-4) [2]: 46 pM; IC50 (dimeric hIL-4R-hFc [3]): 19 pM; Kd (dimeric hIL-4R-hFc [4]): 3 pM; T1/2 dimeric (dimeric hIL-4R-hFc [4]): 41 h; binding result (mouse IL-4R): no binding; % Inhibition (BIAcore) (dimeric hIL-4R-hFc [5]): 97%; Kd [6]: 20 pM; T1/2 monomeric [6]: 4.23 h

B4: VAB 16G1-1 (antibody, V domains shown)
VH: EVKLAESGGGLVQPGGSLRLSCAASGFTFSSHWMNWVRQAPGKGLEWVANIKQDGSDKYYVDSVKGRFTISRDNAKNSLYLQLNSLIAEDTAVYYCARDRGVRPPRGAFDIWGQGTMVTVSS
VL: DIQMTQSPSSVSASVGDRVTITCRASQGISSWLAWYQQKPGKAPKLLIYAASSFQSGVPSRFSGSGSGTDFTLTISSLQPEDFATYFCQQANSFPLTFGGGTTVEIK
notes: 403/405; 407/409 without saying which was assayed; Apparently tested with mouse constant region (anti-mouse IgG capture/detection)
Q: B4 was tested. Which “STAT6 Bioassay IC50 (HEK293 STAT6 luciferase, 40 pM hIL-13)” value [1] did it give?
A: The value was 90 pM.

Q: And the “TF1 Bioassay IC50 (proliferation, 150 pM hIL-13)” value [1]?
A: Its value is 0.44 nM.

Q: What about the “STAT6 Bioassay IC50 (HEK293 STAT6 luciferase, 10 pM hIL-4)” value [2] of the same binder?
A: The value was 0.14 nM.

Q: And the “TF1/A12 Bioassay IC50” value [2]?
A: Its value is 0.7 nM.

Q: What about the “TF1 Bioassay IC50 (proliferation, 50 pM hIL-4)” value [2] of the same binder?
A: The value was 0.12 nM.

Q: And the IC50 (dimeric hIL-4R-hFc [3])?
A: The IC50 was 18 pM.

Q: What about the Kd (dimeric hIL-4R-hFc [4]) of the same binder?
A: Its Kd is 38 pM.

Q: And the T1/2 dimeric (dimeric hIL-4R-hFc [4])?
A: The T1/2 dimeric was 7.3 h.

Q: Does B4 bind (mouse IL-4R)?
A: Result: no binding

Q: And the “% Inhibition (BIAcore)” value (dimeric hIL-4R-hFc [5])?
A: The value was 92%.

Q: What about the Kd [6] of the same binder?
A: Its Kd is 930 pM.

Q: And the T1/2 monomeric [6]?
A: The T1/2 monomeric was 0.25 h.

B5: VX 3F7-6 (antibody, V domains shown)
VH: EVQLVESGGGLVQPGGSLRLSCAASGFTFSSFWMTWVRQAPGKGLEWVANIKQDGSEKYYVDSVKGRFTISRDNAKNSLYLQMNSLRAEDTAVYYCARDPGRTMVRGGIRYYYGMDVWGQGTTVTVSS
VL: DIQMTQSPSSVSASVGDRVTISCRASQGVSSWLAWYQQKPGNAPKLLISAASSIQSGVPSRFSGSGSGTDFTLTISSLQPEDFATYYCQQANSFPLTFGGGTKVEIK
notes: 395/397; 399/401 without saying which was assayed; Apparently tested with mouse constant region (anti-mouse IgG capture/detection)
Q: Which results are given for B5?
A: STAT6 Bioassay IC50 (HEK293 STAT6 luciferase, 40 pM hIL-13) [1]: > 10 nM; STAT6 Bioassay IC50 (HEK293 STAT6 luciferase, 10 pM hIL-4) [2]: > 10 nM; TF1/A12 Bioassay IC50 (proliferation, 20 pM hIL-4) [2]: > 50 nM; IC50 (dimeric hIL-4R-hFc [3]): 274 pM; Kd (dimeric hIL-4R-hFc [4]): 654 pM; T1/2 dimeric (dimeric hIL-4R-hFc [4]): 2.7 h; binding result (mouse IL-4R): no binding; % Inhibition (BIAcore) (dimeric hIL-4R-hFc [5]): 86%; Kd [6]: 3910 pM; T1/2 monomeric [6]: 0.267 h

— patent publication US20080160035A1 (Regeneron, published 2008)
